Literature values as cited in article PMC7545370.

Assays:
[1] = target: KAP1 RBCC (Homo sapiens) (UniProt Q13263)
[2] = target: Ubiquitin (Homo sapiens) (UniProt P0CG48)

SMARCAD1 CUE1, sequence (Q9H4L7 154-202): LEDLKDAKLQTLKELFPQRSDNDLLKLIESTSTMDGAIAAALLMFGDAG
KAP1 RBCC (Homo sapiens), sequence (Q13263 62-379): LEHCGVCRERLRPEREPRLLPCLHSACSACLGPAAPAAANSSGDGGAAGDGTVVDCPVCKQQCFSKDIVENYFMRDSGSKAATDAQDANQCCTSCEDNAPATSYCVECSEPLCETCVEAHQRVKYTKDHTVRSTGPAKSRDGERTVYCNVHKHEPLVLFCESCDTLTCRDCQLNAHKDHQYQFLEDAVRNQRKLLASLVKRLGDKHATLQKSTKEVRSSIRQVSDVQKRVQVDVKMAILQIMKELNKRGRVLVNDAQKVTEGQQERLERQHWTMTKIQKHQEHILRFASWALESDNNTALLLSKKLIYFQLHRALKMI

Q: With SMARCAD1 CUE1 (from UniProt Q9H4L7) as the substance, how does the Kd [1] read?
A: 0.158 µM

Q: And the Kd [2]?
A: 952 µM
